Reference: publication PMC4602035

What was measured:
[1] = molecular target: SecYEG in nanodiscs (titration with FtsY(NBD)) (E. coli) (UniProt P0AGA2); assay: other fluorescence titration
[2] = molecular target: SecY(S111C)EG labeled with MDCC at position 111 of SecY (E. coli) (UniProt P0AGA2); assay: FRET or BRET
[3] = molecular target: nontranslating ribosomes (E. coli) (UniProt P0ADZ0); assay: co-sedimentation

Question: Which Kd [1] does the source give for “FtsY(A26C) labeled with NBD at position 26 (from UniProt P10121 1-497) (receptor)” here?
Answer: The Kd was 160 nM.

B1: FtsY(F196C) labeled with BODIPY FL at position 196 (receptor)
chain: MAKEKKRGFFSWLGFGQKEQTPEKETEVQNEQPVVEEIVQAQEPVKASEQAVEEQPQAHTEAEAETFAADVVEVTEQVAESEKAQPEAEVVAQPEPVVEETPEPVAIEREELPLPEDVNAEAVSPEEWQAEAETVEIVEAAEEEAAKEEITDEELETALAAEAAEEAVMVVPPAEEEQPVEEIAQEQEKPTKEGFCARLKRSLLKTKENLGSGFISLFRGKKIDDDLFEELEEQLLIADVGVETTRKIITNLTEGASRKQLRDAEALYGLLKEEMGEILAKVDEPLNVEGKAPFVILMVGVNGVGKTTTIGKLARQFEQQGKSVMLAAGDTFRAAAVEQLQVWGQRNNIPVIAQHTGADSASVIFDAIQAAKARNIDVLIADTAGRLQNKSHLMEELKKIVRVMKKLDVEAPHEVMLTIDASTGQNAVSQAKLFHEAVGLTGITLTKLDGTAKGGVIFSVADQFGIPIRYIGVGERIEDLRPFKADDFIEALFARED
modifications: BODIPY FL (Bpy) on cysteine 196
Question: For B1, which Kd [2] is on record?
Answer: Its Kd is 180 nM.

B2: SRP present in the ribosome and RNC preparations (complex)
chain: MFDNLTDRLSRTLRNISGRGRLTEDNVKDTLREVRMALLEADVALPVVREFINRVKEKAVGHEVNKSLTPGQEFVKIVRNELVAAMGEENQTLNLAAQPPAVVLMAGLQGAGKTTSVGKLGKFLREKHKKKVLVVSADVYRPAAIKQLETLAEQVGVDFFPSDVGQKPVDIVNAALKEAKLKFYDVLLVDTAGRLHVDEAMMDEIKQVHASINPVETLFVVDAMTGQDAANTAKAFNEALPLTGVVLTKVDGDARGGAALSIRHITGKPIKFLGVGEKTEALEPFHPDRIASRILGMGDVLSLIEDIESKVDRAQAEKLASKLKKGDGFDLNDFLEQLRQMKNMGGMASLMGKLPGMGQIPDNVKSQMDDKVLVRMEAIINSMTMKERAKPEIIKGSRKRRIAAGCGMQVQDVNRLLKQFDDMQRMMKKMKKGGMAKMMRSMKGMMPPGFPGR
Question: Which percent of ribosomes/RNCs with SRP bound [3] does the source give for B2 here?
Answer: Its percent of ribosomes/RNCs with SRP bound is 25%.
